For this test, the target named is T1, Mouse Gal3 protein (recombinant) (mouse, UniProt P16110 1-264).
T1 construct: Galectin-3, mouse, bought protein; R&D is named as the source only for the BLI assay; also called galectin-3; source: bought: R&D
The test is described as follows: BLI; His-tagged CACNG1 (30-109) captured on Ni-NTA biosensors, Gal3 in a concentration gradient, Octet (ForteBio), 30 °C. The following applies: both partners purified. In general terms: Biolayer interferometry detects binding as a change in optical thickness at a sensor tip.

T1 sequence (P16110 whole entry): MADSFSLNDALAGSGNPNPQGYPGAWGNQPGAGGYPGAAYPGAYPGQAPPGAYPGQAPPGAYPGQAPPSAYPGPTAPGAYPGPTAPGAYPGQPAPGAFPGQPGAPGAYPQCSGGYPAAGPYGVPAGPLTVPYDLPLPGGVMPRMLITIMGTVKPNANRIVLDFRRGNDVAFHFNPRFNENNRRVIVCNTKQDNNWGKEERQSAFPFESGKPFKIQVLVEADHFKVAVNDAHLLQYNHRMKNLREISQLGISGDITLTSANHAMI

B1: Extracellular domains of mouse CACNG1 (30-109 AA) with His tags (domain or fragment, UniProt O70578 30-109, looked up)
chain: DHWAVLSPHLEHHNETCEAAHFGLWRICTARVAVHNKDKSCEHVTPSGEKNCSYFRHFNPGESSEIFEFTTQKEYSISAA
modifications: includes the two glycosylation sites
notes: CACNG1, mouse, extracellular domains, residues 30-109, including the two glycosylation sites
In general, Kd refers to the free concentration of one partner at which half of the binding sites on the other are occupied at equilibrium, for simple one-to-one binding. As for B1, the Kd is 180 nM.

Values taken from publication PMC11063191, “Galectin-3 impairs calcium transients and β-cell function” (Nature Communications, 2024).
